In patent US20150239929A1 (PORTOLA PHARMACEUTICALS, published 2015):

B1: r-Antidote (fXa derivative, cleaved two-chain polypeptide of SEQ ID NO: 2) (enzyme)
light: ANSFLFWNKYKDGDQCETSPCQNQGKCKDGLGEYTCTCLEGFEGKNCELFTRKLCSLDNGDCDQFCHEEQNSVVCSCARGYTLADNGKACIPTGPYPCGKQTLER
heavy: IVGGQECKDGECPWQALLINEENEGFCGGTILSEFYILTAAHCLYQAKRFKVRVGDRNTEQEEGGEAVHEVEVVIKHNRFTKETYDFDIAVLRLKTPITFRMNVAPACLPERDWAESTLMTQKTGIVSGFGRTHEKGRQSTRLKMLEVPYVDRNSCKLSSSFIITQNMFCAGYDTKQEDACQGDAGGPHVTRFKDTYFVTGIVSWGEGCARKGKYGIYTKVTAFLKWIDRSMKTRGLPKAKSHAPEVITSSPLK
notes: Made in CHO cells; the two chains are linked by a disulfide bond; also called target protein; functional protein

Experiments:
[1] = target: Aprotinin, immobilised on agarose (Aprotinin-Agarose, catalog #A2268) (UniProt P00974 36-93); assay: affinity column loading, 1 mL resin, 20 mM Tris/150 mM NaCl pH 7.4
Protocol: Commercially available affinity resins were screened for their efficacy in purifying r-Antidote. Various affinity resins were packed into a column (such as a Tricorn column, GE) with 1 mL of resin. Following sanitization according to manufacturer's recommendations, the column was equilibrated with 20 mM Tris/150 mM NaCl at pH 7.4, followed by testing their ability to bind r-Antidote in the same buffer. r-Antidote at a concentration of 0.145 mg/mL in PBS (Phosphate Buffered Saline), was loaded onto the column at a flow rate of 1 mL/min by injection (1 mL).

[2] = target: B1; assay: affinity column loading of purified r-Antidote, 1 mL resin, 20 mM Tris/150 mM NaCl pH 7.4

| Binder | binding result [1] | binding result [2] |
| --- | --- | --- |
| B1 | no binding (tested: 0.145 mg/mL (1 mL injected)) | – |
| Soybean Trypsin Inhibitor (STI), immobilised on affinity resin (other, Glycine max (soybean), UniProt P01070 25-205, looked up, also called STI-Agarose) DFVLDNEGNPLENGGTYYILSDITAFGGIRAAPTGNERCPLTVVQSRNELDKGIGTIISSPYRIRFIAEGHPLSLKFDSFAVIMLCVGIPTEWSVVEDLPEGPAVKIGENKDAMDGWFRLERVSDDEFNNYKLVFCPQQAEDDKCGDIGISIDHDDGTRRLVVSKNKPLVVQFQKLDKESL | – | binds |
